The text below walks through data of US12527876B2, “Insulin-like growth factor-chemotherapeutic conjugate for treating myelodysplastic syndrome” (IGF Oncology, LLC, priority 2017, dated 2026).

Experiment [1] addresses T1, type 1 IGF receptors (IGF-1R) on MCF7 cells (Homo sapiens, UniProt P08069).
T1 construct: type 1 IGF receptors that are abundant on MCF7 cells; host or cells: MCF7
The experiment in a line: Competition binding assay to IGF-1 receptor on MCF7 cells versus I-125-labeled IGF-1. The settings on record: FIG. 1 assay. As for the experimental part: Theory of assay: Radioactive ^125I labeled insulin-like growth factor-1 (IGF-1) competes with a test ligand for binding to type 1 IGF receptors that are abundant on MCF7 cells (a human breast cancer cell line) in vitro.
MCF7 cell media: 500 mL MEM, 0.01 mg/mL bovine insulin; 5 mL sodium pyruvate, 5 mL non-essential amino acids, 10 mL sodium bicarbonate, 10 mL fetal bovine serum, 5 mL penicillin/streptomycin.
MCF7 cells (ATCC HTB-22) were plated at 20,000 cells per well in a volume of 0.5 mL/well in a 48-well tissue culture plate (flat bottom with low evaporation lid) and placed in a cell culture incubator set at 37° C. with 5% CO2. After 2-3 days in culture the plates were washed 2× with 0.5 mL per well of cold binding assay buffer (100 mM Hepes-NaOH, pH 7.2; 120 mM NaCl; 5 mM KCl; 1.2 mM MgSO4; 0.1% BSA). After the final wash, 0.5 mL of binding assay buffer was added to each well and the plates are placed at 4° C. for 2 to 6 hours.
Test ligands were prepared at a concentration of 10 micromolar (long-R3-IGF) or 20 micromolar (765IGF and IGF-MTX) in 5 mM HCl in a volume of 200 ul. […] For long-R3, the lyophilized commercial material is dissolved at 1.0 mg/ml in 10 mM HCl and this is diluted to a concentration of 91 ug/ml for a 10 uM solution. […]
The plates were then incubated overnight at 4° C. […] Cells were lysed with 0.5 mL 300 mM NaOH, 1% SDS and the lysates were counted on a gamma counter.

The target of the next experiment is IGF receptors (Homo sapiens, UniProt P08069). The experiment in a line: Competition binding of refolded IGF fusion proteins to IGF receptors against radioactive wild type IGF (Example 2). The conditions noted are these: refolded 3 hours at room temperature, read-out: approximate binding constants (KDs). How it is done: 2 ml of each of the original Ni eluates from Example 1 was mixed with about an equal volume of 100 mM glycine, 6 M urea, pH 9.5, concentrated by ultrafiltration in a CENTRICON 3 kDa filter unit, then brought up again in that buffer and concentrated to about 420 ul. Then they were diluted to 2 mg/ml for 403IGF, 764IGF, and 765IGF, and 4 mg/ml for 784IGF and 2.4 mg/ml for 785IGF.
Sequence of IGF receptors (P08069 31-736 limits assumed): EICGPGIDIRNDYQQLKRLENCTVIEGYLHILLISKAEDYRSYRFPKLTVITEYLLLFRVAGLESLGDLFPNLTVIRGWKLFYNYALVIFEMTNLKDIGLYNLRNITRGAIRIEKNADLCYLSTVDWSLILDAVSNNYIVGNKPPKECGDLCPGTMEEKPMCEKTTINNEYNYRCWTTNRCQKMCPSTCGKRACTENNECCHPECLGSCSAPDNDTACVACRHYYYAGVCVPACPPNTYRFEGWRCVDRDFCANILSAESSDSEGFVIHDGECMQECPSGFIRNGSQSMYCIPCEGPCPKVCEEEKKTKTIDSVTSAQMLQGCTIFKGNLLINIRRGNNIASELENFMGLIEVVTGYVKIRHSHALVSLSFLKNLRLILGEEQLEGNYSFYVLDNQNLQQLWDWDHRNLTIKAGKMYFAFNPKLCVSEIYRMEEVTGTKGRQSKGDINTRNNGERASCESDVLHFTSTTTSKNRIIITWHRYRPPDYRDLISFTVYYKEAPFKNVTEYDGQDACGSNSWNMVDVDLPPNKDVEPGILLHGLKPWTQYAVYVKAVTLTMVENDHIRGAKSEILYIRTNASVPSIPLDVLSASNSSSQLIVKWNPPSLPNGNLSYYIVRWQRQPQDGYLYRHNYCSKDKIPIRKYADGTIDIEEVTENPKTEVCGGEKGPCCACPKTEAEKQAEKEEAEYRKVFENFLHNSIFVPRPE
Sequence of IGF receptors (P08069 741-1367 partner limits assumed): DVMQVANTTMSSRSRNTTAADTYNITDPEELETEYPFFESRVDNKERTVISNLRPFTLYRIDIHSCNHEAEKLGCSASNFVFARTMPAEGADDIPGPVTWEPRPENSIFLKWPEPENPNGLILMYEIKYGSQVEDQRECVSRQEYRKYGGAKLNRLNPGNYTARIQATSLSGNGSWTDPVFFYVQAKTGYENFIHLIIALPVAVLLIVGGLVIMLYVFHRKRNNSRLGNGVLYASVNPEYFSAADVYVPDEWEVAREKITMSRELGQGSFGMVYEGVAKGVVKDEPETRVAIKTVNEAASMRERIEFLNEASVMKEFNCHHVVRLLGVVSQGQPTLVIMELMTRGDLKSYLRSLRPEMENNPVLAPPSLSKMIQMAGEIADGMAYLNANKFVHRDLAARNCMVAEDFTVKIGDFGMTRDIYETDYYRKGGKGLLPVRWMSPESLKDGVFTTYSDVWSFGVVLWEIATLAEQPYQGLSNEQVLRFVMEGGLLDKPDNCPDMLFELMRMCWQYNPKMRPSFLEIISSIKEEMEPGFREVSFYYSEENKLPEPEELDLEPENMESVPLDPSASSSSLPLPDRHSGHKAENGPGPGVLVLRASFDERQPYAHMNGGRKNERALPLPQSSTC
200 ul of each of these was mixed rapidly with 1.8 ml of refold buffer. Refold buffer was 1.4 M urea, 100 mM glycine, 0.5 M NaCl, 19% ethanol, 0.5 mM GSSG, 4 mM GSH, pH 9.5. They were refolded at room temperature for 3 hours, and then tested in a binding assay for competition binding to IGF receptors against […] radioactive wild type IGF (Perkin Elmer, Inc.) For comparison, commercial Long-R3-IGF (LR3IGF) was also tested.

In experiment [2] the test system is soluble IGF binding proteins. The settings on record: compared to wild-type IGF-1; Francis 1992, Tomas 1993, U.S. Pat. No. 4,876,242; cited from earlier work.

T1 sequence (P08069 31-736 limits assumed): as the sequence (P08069 31-736 limits assumed) above
T1 sequence (P08069 741-1367 partner limits assumed): as the sequence (P08069 741-1367 partner limits assumed) above

B1: LR3IGF: commercial Long-R3-IGF, variant of IGF-1, SEQ ID NO: 5 (protein)
chain: MFPAMPLSSLFVNGPRTLCGALVDALQFVCGDRGFYFNKPTGYGSSSRRAPQTGIVDECCFRSCDLRRLEMYCAPLKPAKSEA
Take B1: the Kd in experiment [1] is roughly 3 nM; with IGF receptors, roughly 1 nM. Moreover, the “binding affinity to the soluble IGF binding proteins” value in experiment [2] was “reduced binding affinity”.
